Results: patent publication US20250011428A1 (Novartis, published 2025)

Experiments:
hCD3epsilon-FC antigen [1] = target: T1, hCD3epsilon-FC antigen (human, UniProt P07766 23-126); test: SPR Biacore T200; hCD3epsilon-FC amine-coupled on CM5, IgG as analyte; set-up: unit not given here
T1 construct: immobilized by amine coupling on CM5; also called human CD3epsilon

hCD3epsilon-FC antigen [2] = target: T1, hCD3epsilon-FC antigen; test: SPR Biacore T200; hCD3epsilon-FC amine-coupled on CM5, IgG as analyte; 1:1 model, apparent KD (bivalent analyte)
Method: A CM5 sensor chip (Sensor Chip SA, GE Healthcare Life Sciences) was used to immobilize hCD3epsilon-FC antigen by amine coupling. Then, engineered anti-CD3 hIgG1 were used as the analyte.
Binding data were acquired by subsequent injection of analyte dilution series on the reference and measuring flow cells. Zero concentration samples (running buffer only) were included to allow double referencing during data evaluation. For data evaluation, doubled referenced sensorgrams were analyzed by applying a 1:1 binding model analysis to generate the equilibrium dissociation constant (KD). Binding constant described Table 7 are considered as apparent KD since immunoglobulins used as analyte are bivalent for the immobilized antigen. In addition, maximum response reached during the experiment was monitored. Maximum response describes the binding capacity of the surface in terms of the response at saturation. Finally, measured maximum responses were normalized to the one measured using parental immunoglobulin (not engineered).

recombinant human hFcRn = target: T2, recombinant human hFcRn (human, UniProt P55899 24-297; P61769 21-119); test: SPR Biacore T200; IgG amine-coupled on CM5, hFcRn as analyte; response normalized to parental (=100)
T2 construct: FcRn is normally a heterodimer with it
T2 sequence (P55899 24-297 limits assumed, chain 1 of 2): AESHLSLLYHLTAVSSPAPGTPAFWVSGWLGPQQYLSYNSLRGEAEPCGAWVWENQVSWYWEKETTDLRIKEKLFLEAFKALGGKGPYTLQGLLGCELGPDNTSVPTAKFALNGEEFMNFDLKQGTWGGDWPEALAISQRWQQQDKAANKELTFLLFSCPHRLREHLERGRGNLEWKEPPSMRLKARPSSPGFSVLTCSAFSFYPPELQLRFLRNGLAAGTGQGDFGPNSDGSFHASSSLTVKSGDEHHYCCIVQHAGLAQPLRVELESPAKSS
T2 sequence (P61769 21-119 limits assumed, chain 2 of 2): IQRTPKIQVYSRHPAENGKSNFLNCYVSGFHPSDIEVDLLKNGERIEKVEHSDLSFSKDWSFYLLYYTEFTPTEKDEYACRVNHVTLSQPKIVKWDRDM
Method: (§1) Kinetics and binding capacity were measured on a BIAcore® T200 instrument (GE Healthcare, Glattbrugg, Switzerland) at room temperature, with proteins diluted in running buffer 10 mM NaP, 150 mM NaCl, 0.05% Tween 20, pH7.6. A CM5 sensor chip (Sensor Chip SA, GE Healthcare Life Sciences) was used to immobilized engineered immunoglobulins by amine coupling. Then, recombinant human hFcγR1a, or recombinant human hFcγR3a (F158V), or recombinant human hFcRn, or hC1q was used as the analyte.
(§2) Binding data were acquired by subsequent injection of analyte dilution series on the reference and measuring flow cells. Zero concentration samples (running buffer only) were included to allow double referencing during data evaluation. For data evaluation, doubled referenced sensorgrams were analyzed and the maximum response reached during the experiment was monitored. Maximum response describes the binding capacity of the surface in terms of the response at saturation. Finally, measured maximum responses were normalized to the one measured using parental immunoglobulin (not engineered).

hC1q [3] = target: T3, hC1q (human, UniProt P02745 23-245; P02746 28-253; P02747 29-245); test: SPR Biacore T200; IgG amine-coupled on CM5, hC1q as analyte; response normalized to parental (=100)
T3 sequence (P02745 23-245 limits assumed, chain 1 of 3): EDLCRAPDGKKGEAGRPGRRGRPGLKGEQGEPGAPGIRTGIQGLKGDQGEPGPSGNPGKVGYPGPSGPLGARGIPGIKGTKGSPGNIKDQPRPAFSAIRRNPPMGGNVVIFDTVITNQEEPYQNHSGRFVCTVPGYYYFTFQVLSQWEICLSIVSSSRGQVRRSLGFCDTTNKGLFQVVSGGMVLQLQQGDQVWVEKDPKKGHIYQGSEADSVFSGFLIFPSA
T3 sequence (P02746 28-253 limits assumed, chain 2 of 3): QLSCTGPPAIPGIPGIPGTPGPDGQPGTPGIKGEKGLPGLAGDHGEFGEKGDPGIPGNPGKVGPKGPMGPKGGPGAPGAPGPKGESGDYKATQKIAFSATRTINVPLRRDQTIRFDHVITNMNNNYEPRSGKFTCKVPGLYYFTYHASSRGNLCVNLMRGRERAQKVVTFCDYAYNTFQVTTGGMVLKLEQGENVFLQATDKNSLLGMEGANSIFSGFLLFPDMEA
T3 sequence (P02747 29-245 limits assumed, chain 3 of 3): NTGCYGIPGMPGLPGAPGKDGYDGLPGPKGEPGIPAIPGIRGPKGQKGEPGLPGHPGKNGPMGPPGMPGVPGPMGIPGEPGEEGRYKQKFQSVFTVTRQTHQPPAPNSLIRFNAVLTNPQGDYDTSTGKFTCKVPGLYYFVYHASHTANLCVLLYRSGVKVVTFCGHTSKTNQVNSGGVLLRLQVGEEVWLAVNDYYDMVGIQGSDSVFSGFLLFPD
Method: as §1, §2

[4] = target: T4, recombinant human hFcγR3a (F158V) (human, UniProt P08637 17-208); test: SPR Biacore T200; IgG amine-coupled on CM5, receptor as analyte; response normalized to parental (=100);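 note: measured at room temperature in pH 7.6 phosphate buffer with Tween 20, double-referenced sensorgrams, maximum response taken as binding capacity at saturation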
T4 construct: also called FcγRIII
T4 sequence (P08637 17-208 F176V): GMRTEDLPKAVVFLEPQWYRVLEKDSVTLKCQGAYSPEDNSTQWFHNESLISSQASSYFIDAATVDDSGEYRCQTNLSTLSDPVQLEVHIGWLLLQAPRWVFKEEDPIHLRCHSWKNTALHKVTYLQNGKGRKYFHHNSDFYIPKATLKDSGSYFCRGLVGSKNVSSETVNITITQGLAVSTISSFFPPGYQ
Method: as §1, §2

[5] = target: T5, recombinant human hFcγR1a (human, UniProt P12314 16-288, limits assumed); test: as above
T5 construct: recombinant, analyte in SPR; also called FcγRI
T5 sequence (P12314 16-288 limits assumed): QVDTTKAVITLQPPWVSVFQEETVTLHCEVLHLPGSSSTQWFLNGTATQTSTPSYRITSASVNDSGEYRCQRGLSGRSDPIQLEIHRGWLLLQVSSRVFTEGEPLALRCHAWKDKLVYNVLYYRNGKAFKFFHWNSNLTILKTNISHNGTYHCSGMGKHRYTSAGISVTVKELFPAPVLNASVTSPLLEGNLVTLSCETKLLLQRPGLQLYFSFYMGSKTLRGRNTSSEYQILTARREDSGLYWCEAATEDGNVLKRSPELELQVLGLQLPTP
Method: as §1, §2

hC1q [6] = target: T3, hC1q; test: SPR max response, normalized to parental (=100)
Method: as §1, §2

T1 sequence (P07766 23-126 limits assumed): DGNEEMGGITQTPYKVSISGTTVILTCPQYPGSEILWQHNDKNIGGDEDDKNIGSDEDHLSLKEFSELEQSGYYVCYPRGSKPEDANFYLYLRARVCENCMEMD

| Binder | Maximum response at 125 nM hIgG1 (hCD3epsilon-FC antigen [1]) | Kd (hCD3epsilon-FC antigen [2]) | Maximum response at 1840 nM hFcRn (RU) (recombinant human hFcRn) | Maximum response at 20 nM hC1q (RU) (hC1q [3]) | Maximum response at 300 nM hFcγR3a F158V (RU) [4] | Maximum response at 100 nM hFcγR1a (RU) [5] | binding result (hC1q [6]) |
| --- | --- | --- | --- | --- | --- | --- | --- |
| CD3_WT (antibody, human IgG1, lambda, hIgG1, no Fc mutation; produced in HEK-293T-17SF; also called parental anti-CD3 IgG1; anti-CD3 monospecific hIgG1) heavy: not shown light: QAVVTQEPSLTVSPGGTVTLTCRSSTGAVTTSNYANWVQQKPGQAPRGLIGGTNKRAPWTPARFSGSLLGDKAALTLSGAQPEDEAEYFCALWYSNLWVFGGGTKLTVLGQPKAAPSVTLFPPSSEELQANKATLVCLISDFYPGAVTVAWKADSSPVKAGVETTTPSKQSNNKYAASSYLSLTPEQWKSHRSYSCQVTHEGSTVEKTVAPTECS | 392 | 2.32 nM | 100 RU | 100 RU | 100 RU | 100 RU |  |
| CD3_1 (antibody, human IgG1, lambda, hIgG1) heavy: EVQLVESGGGLVQPGGSLKLSCAASGFTFNTYAMNWVRQASGKGLEWVGRIRSKYNNYATYYADSVKDRFTISRDDSKSTLYLQMNSLKTEDTAVYYCVRHGNFGNSYVSWFAYWGQGTLVTVSSASTKGPSVFPLAPSSKSTSGGTAALGCLVKDYFPEPVTVSWNSGALTSGVHTFPAVLQSSGLYSLSSVVTVPSSSLGTQTYICNVNHKPSNTKVDKRVEPKSCDKTHTCPPCPAPELCCHPRVFLFPPKPKDTLMISRTPEVTCVVTGLRDEDPEVKFNWYVDGVEVHNAKTKPREEQYCGCYSVVSVLTVLHQDWLNGKEYKCKVSNKALPAPIEKTISKAKGQPREPQVYTLPPSRDELTKNQVSLTCLVKGFYPSDIAVEWESNGQPENNYKTTPPVLDSDGSFFLYSKLTVDKSRWQQGNVFSCSVMHEALHNHYTQKSLSLSPGK light: QAVVTQEPSLTVSPGGTVTLTCRSSTGAVTTSNYANWVQQKPGQAPRGLIGGTNKRAPWTPARFSGSLLGDKAALTLSGAQPEDEAEYFCALWYSNLWVFGGGTKLTVLGQPKAAPSVTLFPPSSEELQANKATLVCLISDFYPGAVTVAWKADSSPVKAGVETTTPSKQSNNKYAASSYLSLTPEQWKSHRSYSCQVTHEGSTVEKTVAPTECS | 371 | 2.06 nM |  | 5 RU | 10 RU | 2 RU |  |
| CD3_7 (antibody, human IgG1, lambda, hIgG1) heavy: not shown light: QAVVTQEPSLTVSPGGTVTLTCRSSTGAVTTSNYANWVQQKPGQAPRGLIGGTNKRAPWTPARFSGSLLGDKAALTLSGAQPEDEAEYFCALWYSNLWVFGGGTKLTVLGQPKAAPSVTLFPPSSEELQANKATLVCLISDFYPGAVTVAWKADSSPVKAGVETTTPSKQSNNKYAASSYLSLTPEQWKSHRSYSCQVTHEGSTVEKTVAPTECS | 367 | 2.27 nM | 80 RU | 2 RU | 5 RU | 21 RU |  |
| CD3_11 (antibody, human IgG1, lambda, hIgG1) heavy: not shown light: QAVVTQEPSLTVSPGGTVTLTCRSSTGAVTTSNYANWVQQKPGQAPRGLIGGTNKRAPWTPARFSGSLLGDKAALTLSGAQPEDEAEYFCALWYSNLWVFGGGTKLTVLGQPKAAPSVTLFPPSSEELQANKATLVCLISDFYPGAVTVAWKADSSPVKAGVETTTPSKQSNNKYAASSYLSLTPEQWKSHRSYSCQVTHEGSTVEKTVAPTECS |  |  | 92 RU |  |  | 19 RU | no binding (tested: 20 nM hC1q) |
| CD3_6 (antibody, human IgG1, lambda, hIgG1) heavy: not shown light: QAVVTQEPSLTVSPGGTVTLTCRSSTGAVTTSNYANWVQQKPGQAPRGLIGGTNKRAPWTPARFSGSLLGDKAALTLSGAQPEDEAEYFCALWYSNLWVFGGGTKLTVLGQPKAAPSVTLFPPSSEELQANKATLVCLISDFYPGAVTVAWKADSSPVKAGVETTTPSKQSNNKYAASSYLSLTPEQWKSHRSYSCQVTHEGSTVEKTVAPTECS | 338 | 2.38 nM | 136 RU | 33 RU | 17 RU | 13 RU |  |
| CD3_8_YTE (antibody, human IgG1, lambda, hIgG1) heavy: EVQLVESGGGLVQPGGSLKLSCAASGFTFNTYAMNWVRQASGKGLEWVGRIRSKYNNYATYYADSVKDRFTISRDDSKSTLYLQMNSLKTEDTAVYYCVRHGNFGNSYVSWFAYWGQGTLVTVSSASTKGPSVFPLAPSSKSTSGGTAALGCLVKDYFPEPVTVSWNSGALTSGVHTFPAVLQSSGLYSLSSVVTVPSSSLGTQTYICNVNHKPSNTKVDKRVEPKSCDKTHTCPPCPAPELLCGPSVFLFPPKPKDTLYITREPEVTCVVVDVSHEDPEVKFNWYVDGVEVHNAKTKPREEQYNSTYRVVSVLTVLHQDWLNGKEYKCKVSNKALPAPIEKTISKAKGQPREPQVYTLPPSRDELTKNQVSLTCLVKGFYPSDIAVEWESNGQPENNYKTTPPVLDSDGSFFLYSKLTVDKSRWQQGNVFSCSVMHEALHNHYTQKSLSLSPGK light: QAVVTQEPSLTVSPGGTVTLTCRSSTGAVTTSNYANWVQQKPGQAPRGLIGGTNKRAPWTPARFSGSLLGDKAALTLSGAQPEDEAEYFCALWYSNLWVFGGGTKLTVLGQPKAAPSVTLFPPSSEELQANKATLVCLISDFYPGAVTVAWKADSSPVKAGVETTTPSKQSNNKYAASSYLSLTPEQWKSHRSYSCQVTHEGSTVEKTVAPTECS |  |  | 604 RU |  |  | 2 RU | no binding (tested: 20 nM hC1q) |
| CD3_10_YTE (antibody, human IgG1, lambda, hIgG1) heavy: EVQLVESGGGLVQPGGSLKLSCAASGFTFNTYAMNWVRQASGKGLEWVGRIRSKYNNYATYYADSVKDRFTISRDDSKSTLYLQMNSLKTEDTAVYYCVRHGNFGNSYVSWFAYWGQGTLVTVSSASTKGPSVFPLAPSSKSTSGGTAALGCLVKDYFPEPVTVSWNSGALTSGVHTFPAVLQSSGLYSLSSVVTVPSSSLGTQTYICNVNHKPSNTKVDKRVEPKSCDKTHTCPPCPAPELLGGPSVFLFPPKPKDTLYITREPEVTCVVVDVSHEDPEVKFNWYVDGVEVHNAKTKPREEQYNSCYRVVSVLTVLHQDWLNGKEYKCKVSNKALPAPIEKTISKAKGQPREPQVYTLPPSRDELTKNQVSLTCLVKGFYPSDIAVEWESNGQPENNYKTTPPVLDSDGSFFLYSKLTVDKSRWQQGNVFSCSVMHEALHNHYTQKSLSLSPGK light: QAVVTQEPSLTVSPGGTVTLTCRSSTGAVTTSNYANWVQQKPGQAPRGLIGGTNKRAPWTPARFSGSLLGDKAALTLSGAQPEDEAEYFCALWYSNLWVFGGGTKLTVLGQPKAAPSVTLFPPSSEELQANKATLVCLISDFYPGAVTVAWKADSSPVKAGVETTTPSKQSNNKYAASSYLSLTPEQWKSHRSYSCQVTHEGSTVEKTVAPTECS |  |  | 280 RU |  |  |  | no binding (tested: 20 nM hC1q) |
